One assay deals with Bmh1 (UniProt P29311). As to the kind of experiment: anti-FLAG co-IP, anti-V5 blot. As to conditions: reference: wild type.
The target of assay [1] is full-length 3xFLAG-tagged Nth1^S83A (S. cerevisiae) (UniProt P32356). The assay is described as follows: co-IP; Nth1-3xFLAG precipitated with anti-FLAG M2 magnetic beads, Bmh1-V5 detected by blot; stationary phase cells recovered by dilution in 1% glucose minimal medium (5 min after glucose replenishment); 25 mM Tris-HCl pH 7.5, 150 mM NaCl, 5 mM CaCl2, 0.1% Triton X-100, 4 °C, 1 h.

Assay [2] addresses T1, Nth1-Strep phosphorylated in vitro with PKA and CyclinB-Cdk1 (S. cerevisiae, UniProt P32356 1-751, full phosphorylation by Cdk1 (site S66) and partial phosphorylation of the PKA sites by PKA (15 nM or 1.5 nM) in vitro).
T1 construct: neutral trehalase Nth1, S. cerevisiae, full length, expressed from pASK-Iba3; also called Nth1-Strep-tagged; source: E. coli BL21(DE3)RP, purified (Strep-Tactin II Superflow), phosphorylated in vitro with PKA and cyclin B-Cdk1
T1 sequence (looked up): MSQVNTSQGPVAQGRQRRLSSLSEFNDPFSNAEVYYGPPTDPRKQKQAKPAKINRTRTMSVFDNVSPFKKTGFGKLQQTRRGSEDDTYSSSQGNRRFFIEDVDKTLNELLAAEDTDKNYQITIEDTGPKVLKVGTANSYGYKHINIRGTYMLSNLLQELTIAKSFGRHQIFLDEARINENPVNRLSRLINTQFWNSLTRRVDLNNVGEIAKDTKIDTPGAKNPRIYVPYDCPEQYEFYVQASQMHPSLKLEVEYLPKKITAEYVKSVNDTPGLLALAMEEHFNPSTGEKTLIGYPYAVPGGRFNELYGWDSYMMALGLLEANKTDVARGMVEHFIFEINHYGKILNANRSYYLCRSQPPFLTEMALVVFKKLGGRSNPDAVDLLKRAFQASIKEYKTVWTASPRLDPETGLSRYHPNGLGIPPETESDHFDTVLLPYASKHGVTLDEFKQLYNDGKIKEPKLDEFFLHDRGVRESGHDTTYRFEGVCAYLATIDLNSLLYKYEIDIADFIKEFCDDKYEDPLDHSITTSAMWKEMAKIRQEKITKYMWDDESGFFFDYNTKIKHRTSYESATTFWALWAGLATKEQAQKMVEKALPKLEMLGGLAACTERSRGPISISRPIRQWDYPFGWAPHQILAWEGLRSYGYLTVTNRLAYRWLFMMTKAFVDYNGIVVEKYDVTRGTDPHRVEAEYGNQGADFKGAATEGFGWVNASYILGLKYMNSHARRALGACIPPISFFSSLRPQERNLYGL
As to the kind of experiment: pull-down; called co-IP by the paper; 6xHis-Bmh1 from BL21RP lysate loaded on Chelating Sepharose and washed, mixed 10 min with in vitro phosphorylated Nth1-Strep (200 ng per sample); washed with 25 mM Tris-HCl pH 7.4, 150 mM NaCl, 5 mM CaCl2; bound Nth1-Strep detected by blot (StrepMAB-Classic). Particulars: both partners purified.

Assay [3] deals with T2, recombinant full-length 6xHis-tagged Nth1 phosphorylated in vitro with PKA (S. cerevisiae, UniProt P32356 1-751, fully phosphorylated with 3 nM PKA in vitro).
T2 construct: neutral trehalase Nth1, S. cerevisiae, full length, expressed from pET28a; also called 6xHis-Nth1
T2 sequence (looked up): T1 sequence (looked up)
The assay is described as follows: phosphatase shielding assay (Phos-tag autoradiograph and mass spectrometry); 1 µM 6xHis-Nth1 phosphorylated with 3 nM PKA in presence or absence of Bmh1 (5:1, Bmh1:Nth1); at 30 min PKA inhibitor and lambda phosphatase (90 U/µl, 1 mM MnCl2) added. As to conditions: both partners purified.

With Nth1 (from UniProt P32356) S60A, in the assay with Bmh1 (sites S60), the percent of reference turned out to be 30%.
Nth1 (from UniProt P32356) S66A: the percent of reference with Bmh1 (sites S66) came out at 50%.
In turn, Nth1 (from UniProt P32356) S83A showed a percent of reference in the assay with Bmh1 (sites S83) of less than 10%.
As to “V5-tagged Bmh1 (from UniProt P29311 1-267) (natural protein)”, the bound Bmh1, percent normalised to WT in assay [1] was less than 10%.

B1: recombinant full-length 6xHis-tagged Bmh1 (natural protein, S. cerevisiae, UniProt P29311 1-267, looked up)
chain: MSTSREDSVYLAKLAEQAERYEEMVENMKTVASSGQELSVEERNLLSVAYKNVIGARRASWRIVSSIEQKEESKEKSEHQVELICSYRSKIETELTKISDDILSVLDSHLIPSATTGESKVFYYKMKGDYHRYLAEFSSGDAREKATNASLEAYKTASEIATTELPPTHPIRLGLALNFSVFYYEIQNSPDKACHLAKQAFDDAIAELDTLSEESYKDSTLIMQLLRDNLTLWTSDMSESGQAEDQQQQQQHQQQQPPAAAEGEAPK
notes: 14-3-3 protein Bmh1, S. cerevisiae, full length, expressed from pET28a; also called 6xHis-Bmh1; Bhm1; source: E. coli BL21(DE3)RP
Turning to B1, the binding result in assay [2] and in assay [3] was “binds” in each case.

The values are drawn from article PMC7806596, “Regulation of trehalase activity by multi-site phosphorylation and 14-3-3 interaction” (Scientific Reports, 2021).
